The values that follow come from patent publication US20240034757A1 (OXFORD UNIVERSITY INNOVATION, published 2024).

Read-outs that look alike come from different tables or passages of the source.

B2: CCL8_HUMAN (ligand, UniProt P80075 24-99, looked up)
chain: QPDSVSIPITCCFNVINRKIPIQRLESYTRITNIQCPKEAVIFKTKRGKEVCADPKERWVRDSMKHLDQIFQNLKP
B4: P1243_AMBAM (other)
chain: RNHTEDNSTEYYDYEEARCACPARHLNNTNGTVLKLLGCHYFCNGTLCTAPDGYPCYNLTAQQVRTLTTYPNTSCAVGVCMKGTCVKNGTMEQCFKTP

One test deals with T1, P1156_IXORI (Ixodes ricinus, UniProt V5HBW0 29-108).
T1 sequence: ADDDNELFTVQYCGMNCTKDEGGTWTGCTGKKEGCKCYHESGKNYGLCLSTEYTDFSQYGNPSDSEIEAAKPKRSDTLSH
The experiment in a line: BLI. (In general: In BLI a coated tip is dipped into the sample, and binding shifts an interference pattern.)

A further test has as its target T2, P1095_IXORI (Ixodes ricinus, UniProt A0A0K8RCE3 24-112).
T2 sequence: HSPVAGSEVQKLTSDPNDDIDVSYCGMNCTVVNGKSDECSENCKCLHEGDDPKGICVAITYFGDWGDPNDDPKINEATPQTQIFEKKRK
The experiment in a line: BLI.

The next test addresses T3, P1096_IXORI (Ixodes ricinus, UniProt A0A0K8RKE4 24-114).
T3 sequence: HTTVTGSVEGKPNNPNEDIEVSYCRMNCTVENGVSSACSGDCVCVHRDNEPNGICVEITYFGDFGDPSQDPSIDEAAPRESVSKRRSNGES
The experiment in a line: BLI.

For the next test, the target named is T4, P1127_IXORI (Ixodes ricinus, UniProt A0A0K8RJ67 29-108).
T4 sequence: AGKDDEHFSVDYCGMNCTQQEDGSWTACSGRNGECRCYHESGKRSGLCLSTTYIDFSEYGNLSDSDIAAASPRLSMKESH
The experiment in a line: BLI.

The target in another test is T5, P1132_IXORI (Ixodes ricinus, UniProt V5GZ08 29-106).
T5 sequence: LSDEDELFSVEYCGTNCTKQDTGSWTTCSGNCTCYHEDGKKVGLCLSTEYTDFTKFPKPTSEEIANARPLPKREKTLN
The experiment in a line: BLI.

The target in a further test is T6, P1134_IXORI (Ixodes ricinus, UniProt A0A0K8RAI0 32-135).
T6 sequence: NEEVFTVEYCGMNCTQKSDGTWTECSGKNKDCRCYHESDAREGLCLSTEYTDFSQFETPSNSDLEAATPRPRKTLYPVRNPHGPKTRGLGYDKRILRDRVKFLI
The experiment in a line: BLI.

In a further test the target is T7, P1166_IXORI (Ixodes ricinus, UniProt A0A0K8RE99 25-110).
T7 sequence: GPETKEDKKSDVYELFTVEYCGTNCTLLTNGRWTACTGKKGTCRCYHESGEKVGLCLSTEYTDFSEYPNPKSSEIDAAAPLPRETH
The experiment in a line: BLI.

The target in a further test is T8, P1168_IXORI (Ixodes ricinus, UniProt A0A0K8RCU3 25-106).
T8 sequence: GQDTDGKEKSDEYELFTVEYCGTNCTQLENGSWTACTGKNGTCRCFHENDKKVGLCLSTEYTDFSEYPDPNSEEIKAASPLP
The experiment in a line: BLI.

The next test addresses T9, P1170_IXORI (Ixodes ricinus, UniProt A0A0K8RD51 29-102).
T9 sequence: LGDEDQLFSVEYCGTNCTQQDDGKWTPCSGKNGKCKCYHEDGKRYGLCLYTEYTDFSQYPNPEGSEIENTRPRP
The experiment in a line: BLI.

In a further test the target is T10, P1174_IXORI (Ixodes ricinus, UniProt V5I3C5 28-104).
T10 sequence: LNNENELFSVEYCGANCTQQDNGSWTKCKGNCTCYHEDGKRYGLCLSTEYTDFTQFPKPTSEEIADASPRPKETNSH
The experiment in a line: BLI.

The next test addresses T11, P1229_IXORI (Ixodes ricinus, UniProt A0A0K8R4R9 32-108).
T11 sequence: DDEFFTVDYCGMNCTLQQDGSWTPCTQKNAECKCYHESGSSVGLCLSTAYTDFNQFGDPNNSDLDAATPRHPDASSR
The experiment in a line: BLI.

Another test concerns the target T12, P467_RHIPU (Rhipicephalus pulchellus, UniProt L7M8Z8 22-127).
T12 sequence: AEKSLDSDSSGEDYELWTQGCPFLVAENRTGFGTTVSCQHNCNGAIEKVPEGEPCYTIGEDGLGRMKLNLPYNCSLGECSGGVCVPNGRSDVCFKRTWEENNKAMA
The experiment in a line: BLI.

Another test has as its target T13, P546_AMBCA (Amblyomma cajennense, UniProt A0A023FBW7 22-118).
T13 sequence: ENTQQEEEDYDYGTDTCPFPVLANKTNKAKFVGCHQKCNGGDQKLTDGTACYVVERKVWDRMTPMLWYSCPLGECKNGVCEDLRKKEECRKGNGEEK
The experiment in a line: BLI.

Another test has as its target T14, P1180_AMBTR (Amblyomma triste, UniProt A0A023G6B6 26-116).
T14 sequence: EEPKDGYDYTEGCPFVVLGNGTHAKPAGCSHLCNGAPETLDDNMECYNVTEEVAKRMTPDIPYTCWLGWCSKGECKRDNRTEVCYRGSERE
The experiment in a line: BLI.

For the next test, the target named is T15, P1181_AMBMA (Amblyomma maculatum, UniProt G3MIX6 26-115).
T15 sequence: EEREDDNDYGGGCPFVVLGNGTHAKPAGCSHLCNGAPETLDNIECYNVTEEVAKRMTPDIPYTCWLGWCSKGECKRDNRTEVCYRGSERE
The experiment in a line: BLI.

The next test addresses T16, P1182_AMBMA (Amblyomma maculatum, UniProt G3MJ83 27-115).
T16 sequence: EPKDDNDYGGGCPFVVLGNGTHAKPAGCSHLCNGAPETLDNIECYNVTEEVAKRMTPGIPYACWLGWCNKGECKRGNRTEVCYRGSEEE
The experiment in a line: BLI.

The next test concerns the target T17, P1183_AMBTR (Amblyomma triste, UniProt A0A023G9N9 26-115).
T17 sequence: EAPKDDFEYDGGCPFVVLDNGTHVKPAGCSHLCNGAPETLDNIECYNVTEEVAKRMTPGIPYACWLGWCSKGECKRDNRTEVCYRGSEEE
The experiment in a line: BLI.

The test “P1243_AMBAM” concerns the target B4. The experiment in a line: BLI.
A further test deals with T18, P672_RHIPU (Rhipicephalus pulchellus, UniProt L7MC74 22-125).
T18 sequence: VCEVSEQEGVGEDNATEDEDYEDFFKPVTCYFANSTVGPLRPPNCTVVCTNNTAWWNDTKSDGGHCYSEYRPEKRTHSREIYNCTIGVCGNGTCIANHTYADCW
The experiment in a line: BLI.

The target in the next test is T19, P974_AMBCA (Amblyomma cajennense, UniProt A0A023FDY8 22-118).
T19 sequence: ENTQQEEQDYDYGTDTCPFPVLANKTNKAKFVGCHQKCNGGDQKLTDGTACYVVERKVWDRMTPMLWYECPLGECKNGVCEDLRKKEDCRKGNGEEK
The experiment in a line: BLI.

The next test concerns the target T20, P983_AMBCA (Amblyomma cajennense, UniProt A0A023FFB5 22-119).
T20 sequence: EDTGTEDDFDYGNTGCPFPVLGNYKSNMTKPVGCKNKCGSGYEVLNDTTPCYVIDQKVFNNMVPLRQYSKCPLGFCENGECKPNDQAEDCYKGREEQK
The experiment in a line: BLI.

In another test the target is T21, P985_AMBPA (Amblyomma parvum, UniProt A0A023FT45 25-132).
T21 sequence: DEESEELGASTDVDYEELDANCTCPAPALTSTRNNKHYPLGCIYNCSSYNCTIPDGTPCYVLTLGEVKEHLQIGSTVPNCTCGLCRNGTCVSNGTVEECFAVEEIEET
The experiment in a line: BLI.

For a further test, the target named is T22, P991_AMBCA (Amblyomma cajennense, UniProt A0A023FFD0 29-136).
T22 sequence: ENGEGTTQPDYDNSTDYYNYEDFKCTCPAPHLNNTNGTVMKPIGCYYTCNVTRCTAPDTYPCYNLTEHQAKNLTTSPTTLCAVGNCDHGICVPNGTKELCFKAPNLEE
The experiment in a line: BLI.

Another test addresses T23, EVA1_RHISA (Rhipicephalus sanguineus, UniProt P0C8E7 21-114).
T23 construct: also called Evasin-1
T23 sequence: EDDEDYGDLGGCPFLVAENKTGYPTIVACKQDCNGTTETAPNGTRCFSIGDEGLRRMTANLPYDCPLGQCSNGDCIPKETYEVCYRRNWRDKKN
The experiment in a line: BLI.

The target in test [1] is T24, CCL5_HUMAN (human, UniProt P13501 24-91).
T24 sequence: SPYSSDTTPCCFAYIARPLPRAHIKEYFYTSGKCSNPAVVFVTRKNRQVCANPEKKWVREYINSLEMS
The experiment in a line: yeast surface display FACS.

The test “CCL8_HUMAN” concerns the target B2. The experiment in a line: yeast surface display FACS.
For the next test, the target named is CCL11_HUMAN (human, UniProt P51671 24-97). The experiment in a line: yeast surface display FACS.
The target of a further test is T25, CCL17_HUMAN (human, UniProt Q92583 24-94).
T25 sequence: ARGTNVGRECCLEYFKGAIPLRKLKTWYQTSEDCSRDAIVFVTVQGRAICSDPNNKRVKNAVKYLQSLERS
The experiment in a line: yeast surface display FACS.

A further test concerns the target CCL20_HUMAN (human, UniProt P78556 27-96). The experiment in a line: yeast surface display FACS.
The target in another test is CXCL12_HUMAN (human, UniProt P48061 22-89). The experiment in a line: yeast surface display FACS.
The next test deals with T26, CCL3_HUMAN (human, UniProt P10147 24-92).
T26 sequence: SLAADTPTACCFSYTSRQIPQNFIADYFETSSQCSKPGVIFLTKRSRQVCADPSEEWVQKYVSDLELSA
The experiment in a line: yeast surface display FACS.

Test [2] deals with T27, CCL21_HUMAN (human, UniProt O00585 24-134).
T27 sequence: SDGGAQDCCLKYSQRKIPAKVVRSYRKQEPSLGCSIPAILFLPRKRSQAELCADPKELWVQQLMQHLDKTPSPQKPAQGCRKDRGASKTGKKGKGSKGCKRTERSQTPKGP
The experiment in a line: BLI.

The target in test [3] is T28, CCL23_HUMAN (human, UniProt P55773 22-120).
T28 sequence: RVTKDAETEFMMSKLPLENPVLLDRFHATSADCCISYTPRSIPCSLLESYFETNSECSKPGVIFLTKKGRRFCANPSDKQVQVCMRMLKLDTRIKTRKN
The experiment in a line: BLI.

Test [4] deals with T27, CCL21_HUMAN. The experiment in a line: BLI. The source holds these as a separate data set.
In test [5] the target is T28, CCL23_HUMAN. The experiment in a line: BLI. This is another data set of the same source.
For test [6], the target named is T24, CCL5_HUMAN. The experiment in a line: cell-based or functional assay.

Sequence of CCL11_HUMAN (P51671 24-97 limits assumed): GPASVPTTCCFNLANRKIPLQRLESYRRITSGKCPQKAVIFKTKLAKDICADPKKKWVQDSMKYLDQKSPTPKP
Sequence of CCL20_HUMAN (P78556 27-96 limits assumed): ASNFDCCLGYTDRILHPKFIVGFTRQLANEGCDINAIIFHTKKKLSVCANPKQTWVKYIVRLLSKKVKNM
Sequence of CXCL12_HUMAN (P48061 22-89 limits assumed): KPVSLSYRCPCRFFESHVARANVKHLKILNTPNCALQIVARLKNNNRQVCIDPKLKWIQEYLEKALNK

B1: CXCL11_HUMAN (ligand)
chain: FPMFKRGRCLCIGPGVKAVKVADIEKASIMYPSNNCDKIEVIITLKENKGQRCLNPKSKQARLIIKKVERKNF
Regarding B1, the binding result with P1156_IXORI, with P1095_IXORI, with P1096_IXORI, with P1127_IXORI, with P1132_IXORI and in the test with P1134_IXORI was “no binding (tested: 300 nM)” each time. Besides, the binding result with P1166_IXORI, with P1168_IXORI, in the test with P1170_IXORI, with P1174_IXORI and with P1229_IXORI was “no binding (tested: 300 nM)” in each case.
What is called Kd is the concentration at which binding is half-saturated. Read a high Kd as weaker binding. Turning to B2, the Kd in the test with P467_RHIPU worked out at 2.85 nM; with P546_AMBCA, 1.3 nM; with P1180_AMBTR, 3.6 nM; in the test with P1181_AMBMA, 14 nM; with P1182_AMBMA it was 29 nM; with P1183_AMBTR, 1100 nM. The dissociation constant Kd turned out to be 21.9 nM with P1243_AMBAM; 3.7 nM in the test with P672_RHIPU; 2.58 nM in the test with P974_AMBCA; 7 nM with P983_AMBCA; 6.5 nM in the test with P985_AMBPA; 8.79 nM with P991_AMBCA. For the same molecule, the binding result with EVA1_RHISA is on record as “no binding (tested: 600 nM)”.

B3: P1030_AMBPA (other)
chain: GPPSIPGNESIPGCGDAGTTTAPEDNPKHYGTLTDKKGCTLPIIGTWMTAVDHQHLQGTRGERRGPTGKVNLPASCRKNCHGRQEILRDGIPCRKVVGNPKGSKKHLKSGCLRGKCLAGQCVNDGRRISCYVPRNITDTEPTPGLLAE
Turning to B3, the binding result with CCL5_HUMAN [1], with CCL8_HUMAN, with CCL11_HUMAN, with CCL17_HUMAN, with CCL20_HUMAN and with CXCL12_HUMAN was “binds” throughout. Also, the binding result with CCL3_HUMAN is listed as “binds”.
Turning to B4, the equilibrium dissociation constant (Kd) in the test with CCL21_HUMAN [2] came to 6.54 nM; in the test with CCL23_HUMAN [3] it was 6.62 nM; with CCL21_HUMAN [4], 6.54 nM; with CCL23_HUMAN [5], 6.62 nM. The “IC50, THP1 cell migration” value in the test with CCL5_HUMAN [6] is 7.87 nM.
